Each block holds one molecule with its values, some of them ahead of it.
Legend:
[1] = target: cysteine-less mutant of Galectin-1 (UniProt P09382); assay: AUC; analytical ultracentrifugation (sedimentation) of Galectin-1 purified in reducing or non-reducing conditions
[2] = target: wild-type recombinant soluble LLT1; assay: SEC; gel filtration of recombinant soluble LLT1 made in HEK293T; peak at 16 ml taken as the non-covalent dimer
[3] = target: the molecule itself; assay: as above

stoichiometry N [1]: 2
Molecule: cysteine-less mutant of Galectin-1 (from UniProt P09382 1-135)

stoichiometry N [2]: 2
Molecule: wild-type recombinant soluble LLT1 (domain or fragment)

B1: soluble LLT1 H176C mutant (domain or fragment)
chain: QAACPESWIGFQRKCFYFSDDTKNWTSSQRFCDSQDADLAQVESFQELNFLLRYKGPSDHWIGLSREQGQPWKWINGTEWTRQFPILGAGECAYLNDKGASSARCYTERKWICSKSDIHV
notes: soluble fragment of the lymphocyte receptor LLT1 with H176C, which restores the disulfide Cys163-Cys176; also called second mutant; source: HEK293T cell line, purified (gel filtration)
stoichiometry N [3]: 2
